Reference: article PMC2275626
“And” between values parts separate entries of the source, which are not always exact repeats. Equal entries are not always repeated.

Target: acetamidofluorescein-F-actin on antifluorescein IgG-Sephacryl S-1000 beads (rabbit) (UniProt P68135)
Experiment: co-sedimentation

myosin subfragment-1 (domain or fragment), sequence (Q28641 whole entry, the tested form may be a part): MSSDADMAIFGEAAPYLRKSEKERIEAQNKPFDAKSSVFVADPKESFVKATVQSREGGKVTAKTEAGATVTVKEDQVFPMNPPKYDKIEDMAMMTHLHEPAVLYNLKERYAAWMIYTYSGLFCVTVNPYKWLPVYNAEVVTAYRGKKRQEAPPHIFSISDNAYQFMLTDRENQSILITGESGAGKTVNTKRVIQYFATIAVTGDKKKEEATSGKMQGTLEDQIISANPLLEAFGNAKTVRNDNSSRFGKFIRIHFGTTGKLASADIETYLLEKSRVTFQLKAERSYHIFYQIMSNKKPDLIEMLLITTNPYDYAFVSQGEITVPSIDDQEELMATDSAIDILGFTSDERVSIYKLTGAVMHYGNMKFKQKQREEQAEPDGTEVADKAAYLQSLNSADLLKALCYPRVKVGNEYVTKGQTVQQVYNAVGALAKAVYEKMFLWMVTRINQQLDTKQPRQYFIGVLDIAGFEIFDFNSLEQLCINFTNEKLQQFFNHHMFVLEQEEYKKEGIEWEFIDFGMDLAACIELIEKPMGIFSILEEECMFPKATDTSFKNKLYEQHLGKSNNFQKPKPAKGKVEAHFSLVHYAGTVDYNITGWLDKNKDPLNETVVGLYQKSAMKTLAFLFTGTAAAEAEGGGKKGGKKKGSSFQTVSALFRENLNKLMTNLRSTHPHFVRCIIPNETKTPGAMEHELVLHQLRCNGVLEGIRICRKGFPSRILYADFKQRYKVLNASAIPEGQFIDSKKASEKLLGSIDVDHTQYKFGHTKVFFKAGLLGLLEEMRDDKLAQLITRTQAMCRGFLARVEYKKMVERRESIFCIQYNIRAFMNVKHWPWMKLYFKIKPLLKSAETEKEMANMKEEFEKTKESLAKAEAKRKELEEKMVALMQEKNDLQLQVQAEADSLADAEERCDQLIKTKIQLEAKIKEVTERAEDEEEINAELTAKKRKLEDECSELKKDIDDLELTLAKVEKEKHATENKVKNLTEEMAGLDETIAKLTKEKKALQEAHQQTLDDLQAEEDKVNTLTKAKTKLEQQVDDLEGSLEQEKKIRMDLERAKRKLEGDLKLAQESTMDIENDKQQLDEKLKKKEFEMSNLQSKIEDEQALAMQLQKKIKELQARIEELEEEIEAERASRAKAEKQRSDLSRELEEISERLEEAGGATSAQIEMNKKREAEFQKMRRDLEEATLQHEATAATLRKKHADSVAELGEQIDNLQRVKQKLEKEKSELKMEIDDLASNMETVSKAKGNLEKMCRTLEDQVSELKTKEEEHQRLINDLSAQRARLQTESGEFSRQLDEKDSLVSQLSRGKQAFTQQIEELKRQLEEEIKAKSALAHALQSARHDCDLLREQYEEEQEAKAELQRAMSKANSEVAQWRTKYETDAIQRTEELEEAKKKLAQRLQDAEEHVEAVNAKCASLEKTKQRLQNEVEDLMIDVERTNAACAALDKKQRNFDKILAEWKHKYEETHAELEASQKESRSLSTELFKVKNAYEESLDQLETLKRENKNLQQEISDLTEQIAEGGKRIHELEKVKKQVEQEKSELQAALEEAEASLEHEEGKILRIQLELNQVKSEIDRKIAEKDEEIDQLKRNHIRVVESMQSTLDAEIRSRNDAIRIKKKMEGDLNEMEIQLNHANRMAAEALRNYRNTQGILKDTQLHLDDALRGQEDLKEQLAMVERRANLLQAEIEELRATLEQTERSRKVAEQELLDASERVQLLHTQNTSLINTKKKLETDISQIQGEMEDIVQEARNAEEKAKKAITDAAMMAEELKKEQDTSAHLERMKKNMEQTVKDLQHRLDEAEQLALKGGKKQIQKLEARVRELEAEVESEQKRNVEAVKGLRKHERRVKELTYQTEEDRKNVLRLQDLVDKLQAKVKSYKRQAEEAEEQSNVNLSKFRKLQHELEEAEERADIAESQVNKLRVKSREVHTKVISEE

myosin subfragment-1 (domain or fragment)
Ki: 40 nM and 25 nM and 80 nM
